Data reported in US20240269235A1.
Read-outs that look alike come from different tables or passages of the source.

What was measured:
Assay in all cases: cell-based or functional assay
[1] = biological target: human IL-2Rα on Treg cells (CD3+, CD4+, CD25hi, FoxP3+) of human PBMC (human) (UniProt P01589)
[2] = biological target: trimeric murine IL-2 receptor (IL-2Rα, IL-2Rβ, and IL-2Rγ) on CTLL-2 cells (murine) (UniProt P01590)
[3] = biological target: trimeric murine IL-2 receptor (IL-2Rα, IL-2Rβ, and IL-2Rγ) on CTLL-2 cells (murine) (UniProt P01590); remark: listed apart in the source

Sequence of trimeric murine IL-2 receptor (IL-2Rα, IL-2Rβ, and IL-2Rγ) on CTLL-2 cells (murine) (P01590 22-268, chain 1 of 3): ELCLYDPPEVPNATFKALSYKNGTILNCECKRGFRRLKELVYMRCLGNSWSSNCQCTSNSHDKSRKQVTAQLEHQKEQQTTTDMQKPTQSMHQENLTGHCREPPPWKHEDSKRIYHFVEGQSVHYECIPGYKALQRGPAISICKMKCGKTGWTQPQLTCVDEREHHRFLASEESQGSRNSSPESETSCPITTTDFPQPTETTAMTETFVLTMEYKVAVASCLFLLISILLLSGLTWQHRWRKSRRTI
Sequence of trimeric murine IL-2 receptor (IL-2Rα, IL-2Rβ, and IL-2Rγ) on CTLL-2 cells (murine) (P16297 27-539, chain 2 of 3, further chain): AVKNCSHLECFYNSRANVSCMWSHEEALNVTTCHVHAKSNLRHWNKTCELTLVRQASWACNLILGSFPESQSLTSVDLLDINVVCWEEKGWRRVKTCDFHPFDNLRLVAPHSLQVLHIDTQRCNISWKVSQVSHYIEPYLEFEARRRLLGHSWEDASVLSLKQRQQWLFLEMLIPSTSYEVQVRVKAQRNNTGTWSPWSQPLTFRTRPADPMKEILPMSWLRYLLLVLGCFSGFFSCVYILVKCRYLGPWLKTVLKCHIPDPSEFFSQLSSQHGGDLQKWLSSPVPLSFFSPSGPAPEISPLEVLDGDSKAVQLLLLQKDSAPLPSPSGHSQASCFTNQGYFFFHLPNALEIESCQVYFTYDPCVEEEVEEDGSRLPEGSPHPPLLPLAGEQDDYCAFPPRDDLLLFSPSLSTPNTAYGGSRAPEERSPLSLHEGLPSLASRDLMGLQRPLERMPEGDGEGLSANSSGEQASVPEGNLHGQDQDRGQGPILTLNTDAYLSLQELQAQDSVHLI
Sequence of trimeric murine IL-2 receptor (IL-2Rα, IL-2Rβ, and IL-2Rγ) on CTLL-2 cells (murine) (P34902 23-369, chain 3 of 3, further chain): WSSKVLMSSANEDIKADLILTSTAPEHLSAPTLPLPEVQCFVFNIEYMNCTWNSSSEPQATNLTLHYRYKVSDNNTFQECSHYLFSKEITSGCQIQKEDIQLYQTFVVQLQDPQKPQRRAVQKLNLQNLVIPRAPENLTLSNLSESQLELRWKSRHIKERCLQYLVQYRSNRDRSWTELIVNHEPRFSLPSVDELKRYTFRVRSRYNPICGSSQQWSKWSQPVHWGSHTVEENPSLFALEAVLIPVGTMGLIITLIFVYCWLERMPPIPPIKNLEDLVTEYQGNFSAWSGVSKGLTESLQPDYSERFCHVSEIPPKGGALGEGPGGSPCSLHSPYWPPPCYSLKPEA
Sequence of human IL-2Rα on Treg cells (CD3+, CD4+, CD25hi, FoxP3+) of human PBMC (human) (P01589 22-272): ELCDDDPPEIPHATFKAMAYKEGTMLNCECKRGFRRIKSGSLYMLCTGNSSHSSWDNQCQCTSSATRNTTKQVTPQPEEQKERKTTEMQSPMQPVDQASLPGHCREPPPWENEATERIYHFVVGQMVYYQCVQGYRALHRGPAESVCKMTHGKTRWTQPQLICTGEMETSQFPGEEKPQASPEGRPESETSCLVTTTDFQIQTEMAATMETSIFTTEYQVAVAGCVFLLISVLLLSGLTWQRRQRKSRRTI

**Q.** Which results are given for “Proleukin (from UniProt P60568 22-153) (ligand)”?
**A.** Treg EC50, STAT5 activation (PBMC STAT5 assay) [1]: < 1 pM; STAT5 activation of CTLL-2 cells, EC50 [2]: 6 pM; STAT5 activation of CTLL-2 cells, EC50 [3]: 2 pM
